Measurements from IntAct's records for PubMed 21447556.

B1: Protein argonaute-3 (Drosophila melanogaster (Fruit fly)), Q7PLK0 (parent)
chain: MSGRGNLLSLFNKNAGNMGKSISSKDHEIDSGLDFNNSESSGERLLSSHNIETDLITTLQHVNISVGRGRARLIDTLKTDDHTSNQFITSESKENITKKTKGPESEAIASENGLFFPDLIYGSKGSSVNIYCNYLKLTTDESKGVFNYEVRFFPPIDSVHLRIKYLNDHKDKLGGTKTFDGNTLYLPILLPNKMTVFISKAEDVELQIRILYKKKEEMRNCTQLYNILFDRVMKVLNYVKFDRKQFDPSRPKIIPLAKLEVWPGYVTAVDEYKGGLMLCCDVSHRILCQKTVLEMLVDLYQQNVEHYQESARKMLVGNIVLTRYNNRTYKINDICFDQNPTCQFEIKTGCTSYVEYYKQYHNINIKDVNQPLIYSIKKSRGIPAERENLQFCLIPELCYLTGLRDEVRSDNKLMREIATFTRVSPNQRQMALNKFYENVSNTPAAQEILNSWGLSLTNNSNKISGRQMDIEQIYFSKISVSAGRSAEFSKHAVTNEMLKVVHLSKWIIIHLRNYRQAATSLLDNMKQACESLGMNISNPTMISLDHDRIDAYIQALRRNITMNTQMVVCICHNRRDDRYAAIKKICCSEIPIPSQVINAKTLQNDLKIRSVVQKIVLQMNCKLGGSLWTVKIPFKNVMICGIDSYHDPSNRGNSVAAFVASINSSYSQWYSKAVVQTKREEIVNGLSASFEIALKMYRKRNGKLPTNIIIYRDGIGDGQLYTCLNYEIPQFEMVCGNRIKISYIVVQKRINTRIFSGSGIHLENPLPGTVVDQHITKSNMYDFFLVSQLVRQGTVTPTHYVVLRDDCNYGPDIIQKLSYKLCFLYYNWAGTVRIPACCMYAHKLAYLIGQSIQRDVAEALSEKLFYL
partner: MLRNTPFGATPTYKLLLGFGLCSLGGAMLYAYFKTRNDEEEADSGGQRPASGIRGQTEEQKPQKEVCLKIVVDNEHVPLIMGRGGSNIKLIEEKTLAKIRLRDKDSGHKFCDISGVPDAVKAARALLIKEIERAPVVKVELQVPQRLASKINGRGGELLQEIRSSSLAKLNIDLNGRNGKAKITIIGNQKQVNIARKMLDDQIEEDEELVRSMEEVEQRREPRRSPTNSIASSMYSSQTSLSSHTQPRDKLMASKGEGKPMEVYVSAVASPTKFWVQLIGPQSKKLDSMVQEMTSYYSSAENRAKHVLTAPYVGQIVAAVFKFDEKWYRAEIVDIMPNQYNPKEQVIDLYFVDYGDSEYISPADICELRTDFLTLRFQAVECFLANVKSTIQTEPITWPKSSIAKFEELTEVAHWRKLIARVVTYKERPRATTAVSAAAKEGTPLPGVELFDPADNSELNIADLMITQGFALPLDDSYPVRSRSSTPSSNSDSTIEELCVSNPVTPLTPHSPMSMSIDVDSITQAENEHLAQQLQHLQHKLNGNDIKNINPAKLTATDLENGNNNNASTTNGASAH
B2: Protein piwi (Drosophila melanogaster (Fruit fly)), Q9VKM1 (parent)
chain: MADDQGRGRRRPLNEDDSSTSRGSGDGPRVKVFRGSSSGDPRADPRIEASRERRALEEAPRREGGPTERKPWGDQYDYLNTRPAELVSKKGTDGVPVMLQTNFFRLKTKPEWRIVHYHVEFEPSIENPRVRMGVLSNHANLLGSGYLFDGLQLFTTRKFEQEITVLSGKSKLDIEYKISIKFVGFISCAEPRFLQVLNLILRRSMKGLNLELVGRNLFDPRAKIEIREFKMELWPGYETSIRQHEKDILLGTEITHKVMRTETIYDIMRRCSHNPARHQDEVRVNVLDLIVLTDYNNRTYRINDVDFGQTPKSTFSCKGRDISFVEYYLTKYNIRIRDHNQPLLISKNRDKALKTNASELVVLIPELCRVTGLNAEMRSNFQLMRAMSSYTRMNPKQRTDRLRAFNHRLQNTPESVKVLRDWNMELDKNVTEVQGRIIGQQNIVFHNGKVPAGENADWQRHFRDQRMLTTPSDGLDRWAVIAPQRNSHELRTLLDSLYRAASGMGLRIRSPQEFIIYDDRTGTYVRAMDDCVRSDPKLILCLVPNDNAERYSSIKKRGYVDRAVPTQVVTLKTTKNRSLMSIATKIAIQLNCKLGYTPWMIELPLSGLMTIGFDIAKSTRDRKRAYGALIASMDLQQNSTYFSTVTECSAFDVLANTLWPMIAKALRQYQHEHRKLPSRIVFYRDGVSSGSLKQLFEFEVKDIIEKLKTEYARVQLSPPQLAYIVVTRSMNTRFFLNGQNPPPGTIVDDVITLPERYDFYLVSQQVRQGTVSPTSYNVLYSSMGLSPEKMQKLTYKMCHLYYNWSGTTRVPAVCQYAKKLATLVGTNLHSIPQNALEKKFYYL
partner: B1 partner

Variants of: B1
Details: with tdrkh_drome papi

Row | effect of a mutation on the interaction | Variant
1 | disrupting interaction strength | R68K;R70K;R72K

Variants of: B2
Details: with tdrkh_drome papi

Row | effect of a mutation on the interaction | Variant
2 | disrupting interaction strength | R7K;R9K
